Measurements as given in publication PMC10746543 (2023).

Assays:
_(Alexa488)DDB1 [1] = molecular target: T1, _(Alexa488)DDB1 (human, UniProt Q16531 1-1140, SpyTag joined to SpyCatcher (S50C) labelled with Alexa488–C5–maleimide); experiment: FRET; compound Z11 titration
_(Alexa488)DDB1 [2] = molecular target: T1, _(Alexa488)DDB1; experiment: FRET; compound HQ461 titration
_(Alexa488)DDB1 [3] = molecular target: T1, _(Alexa488)DDB1; experiment: FRET; compound Z7 titration
_(Alexa488)DDB1 [4] = molecular target: T1, _(Alexa488)DDB1; experiment: FRET; compound dCeMM3 titration
_(Alexa488)DDB1 [5] = molecular target: T1, _(Alexa488)DDB1; experiment: FRET; compound Z12 titration

T1 sequence (Q16531 whole entry): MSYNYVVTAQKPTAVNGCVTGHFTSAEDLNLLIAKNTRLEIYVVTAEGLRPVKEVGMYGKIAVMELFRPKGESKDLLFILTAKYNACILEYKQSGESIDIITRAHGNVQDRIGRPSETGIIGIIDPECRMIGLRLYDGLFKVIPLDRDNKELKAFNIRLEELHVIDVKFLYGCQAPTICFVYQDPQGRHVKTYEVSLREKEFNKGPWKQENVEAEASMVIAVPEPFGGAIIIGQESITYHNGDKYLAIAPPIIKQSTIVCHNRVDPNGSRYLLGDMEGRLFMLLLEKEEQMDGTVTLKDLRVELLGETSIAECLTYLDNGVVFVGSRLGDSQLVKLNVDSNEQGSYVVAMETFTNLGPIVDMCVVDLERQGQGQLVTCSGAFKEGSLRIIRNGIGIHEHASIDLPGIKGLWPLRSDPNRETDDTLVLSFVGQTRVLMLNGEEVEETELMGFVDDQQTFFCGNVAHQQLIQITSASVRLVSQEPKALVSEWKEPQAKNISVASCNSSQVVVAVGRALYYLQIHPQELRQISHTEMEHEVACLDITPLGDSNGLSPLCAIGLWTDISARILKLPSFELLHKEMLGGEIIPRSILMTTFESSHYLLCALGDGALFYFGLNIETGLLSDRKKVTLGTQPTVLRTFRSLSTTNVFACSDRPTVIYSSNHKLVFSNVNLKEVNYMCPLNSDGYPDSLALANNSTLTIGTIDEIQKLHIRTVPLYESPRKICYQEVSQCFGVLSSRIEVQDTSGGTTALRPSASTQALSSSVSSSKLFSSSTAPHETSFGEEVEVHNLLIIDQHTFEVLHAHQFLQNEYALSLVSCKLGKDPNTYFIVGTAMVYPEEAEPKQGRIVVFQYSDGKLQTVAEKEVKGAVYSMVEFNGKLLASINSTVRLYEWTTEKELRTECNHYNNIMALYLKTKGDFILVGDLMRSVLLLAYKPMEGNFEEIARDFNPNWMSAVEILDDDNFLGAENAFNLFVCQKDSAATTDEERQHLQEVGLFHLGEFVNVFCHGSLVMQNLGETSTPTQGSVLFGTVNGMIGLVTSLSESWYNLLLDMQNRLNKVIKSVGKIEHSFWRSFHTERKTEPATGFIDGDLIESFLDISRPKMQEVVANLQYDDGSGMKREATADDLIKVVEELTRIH

B1: CDK12–cyclin K_(biotin) (complex)
chain 1: not shown
chain 2: MKENKENSSPSVTSANLDHTKPCWYWDKKDLAHTPSQLEGLDPATEARYRREGARFIFDVGTRLGLHYDTLATGIIYFHRFYMFHSFKQFPRYVTGACCLFLAGKVEETPKKCKDIIKTARSLLNDVQFGQFGDDPKEEVMVLERILLQTIKFDLQVEHPYQFLLKYAKQLKGDKNKIQKLVQMAWTFVNDSLCTTLSLQWEPEIIAVAVMYLAGRLCKFEIQEWTSKPMYRRWWEQFVQDVPVDVLEDICHQILDLYSQGKQQMPH
modifications: biotin on the Avi tag (enzymatic, BirA)
_(Alexa488)DDB1 [1]
  EC50: 0.178 µM
_(Alexa488)DDB1 [2]
  EC50: 0.043 µM
_(Alexa488)DDB1 [3]
  EC50: 0.303 µM
_(Alexa488)DDB1 [4]
  EC50: 0.263 µM
_(Alexa488)DDB1 [5]
  EC50: 0.833 µM
